Data on 1 molecule can be found in paper PMC10750099, “Mapping immunological and host receptor binding determinants of SARS-CoV spike protein utilizing the Qubevirus platform” (The Journal of Biological Chemistry, 2023).

For this test, the target named is T1, recombinant human angiotensin-converting enzyme 2 (human, UniProt Q9BYF1 18-740).
T1 construct: also called rhACE2; hACE2
Put plainly: phage display biopanning. To be noted: both partners purified.

T1 sequence (Q9BYF1 18-740): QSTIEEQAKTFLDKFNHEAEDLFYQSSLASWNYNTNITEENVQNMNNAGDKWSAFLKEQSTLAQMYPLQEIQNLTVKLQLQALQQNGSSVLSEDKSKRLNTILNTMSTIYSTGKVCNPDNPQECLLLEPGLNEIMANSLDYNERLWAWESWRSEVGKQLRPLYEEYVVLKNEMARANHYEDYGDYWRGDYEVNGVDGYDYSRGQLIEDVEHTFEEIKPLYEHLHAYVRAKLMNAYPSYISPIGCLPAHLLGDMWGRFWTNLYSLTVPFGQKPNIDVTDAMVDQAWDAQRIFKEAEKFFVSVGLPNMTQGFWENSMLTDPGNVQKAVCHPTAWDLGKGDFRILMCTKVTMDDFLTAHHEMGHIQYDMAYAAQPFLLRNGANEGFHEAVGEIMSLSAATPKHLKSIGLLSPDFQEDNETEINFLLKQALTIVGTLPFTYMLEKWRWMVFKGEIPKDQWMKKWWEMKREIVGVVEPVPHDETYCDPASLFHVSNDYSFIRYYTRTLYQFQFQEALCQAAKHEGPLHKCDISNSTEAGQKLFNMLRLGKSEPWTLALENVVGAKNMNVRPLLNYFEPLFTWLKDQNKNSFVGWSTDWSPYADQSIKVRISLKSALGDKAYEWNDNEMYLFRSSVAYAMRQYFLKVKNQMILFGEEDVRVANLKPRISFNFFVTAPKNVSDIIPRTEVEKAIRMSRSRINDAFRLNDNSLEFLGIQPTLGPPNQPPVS

B1: recombinant Qβ phage QβF6 displaying SARS-CoV spike fragment F6 (S425-525) at the C terminus of the A1 minor coat protein (domain or fragment)
chain: not shown
notes: also called GF6; QF6
As to B1, the binding result is “binds”.
